{
  "source": "paper PMC6981877",
  "about": "“Conformational Plasticity of the Active Site Entrance in E. coli Aspartate Transcarbamoylase and Its Implication in Feedback Regulation” (International Journal of Molecular Sciences, 2020)",
  "proteins": {"B1": {"name": "E. coli aspartate transcarbamoylase (ATCase) regulatory chain (natural protein, E. coli (endogenous in BL21(DE3)), UniProt P0A7F3 1-153, looked up)", "chain": "MTHDNKLQVEAIKRGTVIDHIPAQIGFKLLSLFKLTETDQRITIGLNLPSGEMGRKDLIKIENTFLSEDQVDQLALYAPQATVNRIDNYEVVGKSRPSLPERIDNVLVCPNSNCISHAEPVSSSFAVRKRANDIALKCKYCEKEFSHNVVLAN", "notes": "Aspartate transcarbamoylase regulatory chain, E. coli, wild type, native; also called regulatory subunit; source: endogenous, extracted from E. coli BL21(DE3), purified as native holoenzyme (Ni-NTA, HiLoad Superdex 200)"}, "B2": {"name": "E. coli aspartate transcarbamoylase (ATCase) catalytic chain (enzyme, E. coli (endogenous in BL21(DE3)), UniProt P0A786 1-311, looked up)", "chain": "MANPLYQKHIISINDLSRDDLNLVLATAAKLKANPQPELLKHKVIASCFFEASTRTRLSFETSMHRLGASVVGFSDSANTSLGKKGETLADTISVISTYVDAIVMRHPQEGAARLATEFSGNVPVLNAGDGSNQHPTQTLLDLFTIQETQGRLDNLHVAMVGDLKYGRTVHSLTQALAKFDGNRFYFIAPDALAMPQYILDMLDEKGIAWSLHSSIEEVMAEVDILYMTRVQKERLDPSEYANVKAQFVLRASDLHNAKANMKVLHPLPRVDEIATDVDKTPHAWYFQQAGNGIFARQALLALVLNRDLVL", "notes": "Aspartate transcarbamoylase catalytic chain, E. coli, wild type, native form lacking the His tag; Crystallised as part of the native holoenzyme; also called catalytic subunit; source: endogenous, extracted from E. coli BL21(DE3), purified as native holoenzyme (Ni-NTA, HiLoad Superdex 200)"}},
  "target": "the molecule itself",
  "assay": "crystal structure; native wild-type apo holoenzyme extracted from E. coli BL21(DE3); hanging drop, 0.1 M MES pH 6.0, 10% glycerol, 10% PEG 8000; space group R32, one catalytic and one regulatory chain in the asymmetric unit; 2.06 Å",
  "data": [
    {"protein": "B1", "values": [
      {"measurement": "binding result", "value": "binds"}
    ]},
    {"protein": "B2", "values": [
      {"measurement": "binding result", "value": "binds"}
    ]}
  ]
}
